{"source": "patent US20070032640A1", "about": "“Cytokine receptor” (priority 2001, published 2007)", "origin": "cited, not measured here", "molecules": {"B1": {"name": "C192: IL-6R with C192 mutated to alanine (protein, UniProt P08887 20-468, looked up, variant C192A)", "Interleukin-6 receptor …": "LAPRRCPAQEVARGVLTSLPGDSVTLTCPGVEPEDNATVHWVLRKPAAGSHPSRWAGMGRRLLLRSVQLHDSGNYSCYRAGRPAGTVHLLVDVPPEEPQLSCFRKSPLSNVVCEWGPRSTPSLTTKAVLLVRKFQNSPAEDFQEPCQYSQESQKFSCQLAVPEGDSSFYIVSMCVASSVGSKFSKTQTFQGAGILQPDPPANITVTAVARNPRWLSVTWQDPHSWNSSFYRLRFELRYRAERSKTFTTWMVKDLQHHCVIHDAWSGLRHVVQLRAQEEFGQGEWSEWSPEAMGTPWTESRSPPAENEVSTPMQALTTNKDDDNILFRDSANATSLPVQDSSSVPLPTFLVAGGSLAFGTLLCIAIVLRFKKTWKLRALKEGKTSMHPPYSLGQLVPERPRPTPVLVPLISPPVSPSSLGSDNTSSHNRPDARDPRSPYDISNTDYFFPR"}, "B2": {"name": "H261: IL-6R H-I mutation at H261 (protein, UniProt P08887 20-468, looked up, variant H261I)", "Interleukin-6 receptor …": "LAPRRCPAQEVARGVLTSLPGDSVTLTCPGVEPEDNATVHWVLRKPAAGSHPSRWAGMGRRLLLRSVQLHDSGNYSCYRAGRPAGTVHLLVDVPPEEPQLSCFRKSPLSNVVCEWGPRSTPSLTTKAVLLVRKFQNSPAEDFQEPCQYSQESQKFSCQLAVPEGDSSFYIVSMCVASSVGSKFSKTQTFQGCGILQPDPPANITVTAVARNPRWLSVTWQDPHSWNSSFYRLRFELRYRAERSKTFTTWMVKDLQHHCVIIDAWSGLRHVVQLRAQEEFGQGEWSEWSPEAMGTPWTESRSPPAENEVSTPMQALTTNKDDDNILFRDSANATSLPVQDSSSVPLPTFLVAGGSLAFGTLLCIAIVLRFKKTWKLRALKEGKTSMHPPYSLGQLVPERPRPTPVLVPLISPPVSPSSLGSDNTSSHNRPDARDPRSPYDISNTDYFFPR"}, "B3": {"name": "V259: IL-6R V-N mutant at V259 (protein, UniProt P08887 20-468, looked up, variant V259N)", "Interleukin-6 receptor …": "LAPRRCPAQEVARGVLTSLPGDSVTLTCPGVEPEDNATVHWVLRKPAAGSHPSRWAGMGRRLLLRSVQLHDSGNYSCYRAGRPAGTVHLLVDVPPEEPQLSCFRKSPLSNVVCEWGPRSTPSLTTKAVLLVRKFQNSPAEDFQEPCQYSQESQKFSCQLAVPEGDSSFYIVSMCVASSVGSKFSKTQTFQGCGILQPDPPANITVTAVARNPRWLSVTWQDPHSWNSSFYRLRFELRYRAERSKTFTTWMVKDLQHHCNIHDAWSGLRHVVQLRAQEEFGQGEWSEWSPEAMGTPWTESRSPPAENEVSTPMQALTTNKDDDNILFRDSANATSLPVQDSSSVPLPTFLVAGGSLAFGTLLCIAIVLRFKKTWKLRALKEGKTSMHPPYSLGQLVPERPRPTPVLVPLISPPVSPSSLGSDNTSSHNRPDARDPRSPYDISNTDYFFPR"}, "B4": {"name": "F-Y mutant: IL-6R F-Y mutant at F168 (protein, UniProt P08887 20-468, looked up, variant F168Y)", "Interleukin-6 receptor …": "LAPRRCPAQEVARGVLTSLPGDSVTLTCPGVEPEDNATVHWVLRKPAAGSHPSRWAGMGRRLLLRSVQLHDSGNYSCYRAGRPAGTVHLLVDVPPEEPQLSCFRKSPLSNVVCEWGPRSTPSLTTKAVLLVRKFQNSPAEDFQEPCQYSQESQKFSCQLAVPEGDSSYYIVSMCVASSVGSKFSKTQTFQGCGILQPDPPANITVTAVARNPRWLSVTWQDPHSWNSSFYRLRFELRYRAERSKTFTTWMVKDLQHHCVIHDAWSGLRHVVQLRAQEEFGQGEWSEWSPEAMGTPWTESRSPPAENEVSTPMQALTTNKDDDNILFRDSANATSLPVQDSSSVPLPTFLVAGGSLAFGTLLCIAIVLRFKKTWKLRALKEGKTSMHPPYSLGQLVPERPRPTPVLVPLISPPVSPSSLGSDNTSSHNRPDARDPRSPYDISNTDYFFPR"}, "B5": {"name": "W214: IL-6R W-Q mutant at W214 (protein, UniProt P08887 20-468, looked up, variant W214Q)", "Interleukin-6 receptor …": "LAPRRCPAQEVARGVLTSLPGDSVTLTCPGVEPEDNATVHWVLRKPAAGSHPSRWAGMGRRLLLRSVQLHDSGNYSCYRAGRPAGTVHLLVDVPPEEPQLSCFRKSPLSNVVCEWGPRSTPSLTTKAVLLVRKFQNSPAEDFQEPCQYSQESQKFSCQLAVPEGDSSFYIVSMCVASSVGSKFSKTQTFQGCGILQPDPPANITVTAVARNPRQLSVTWQDPHSWNSSFYRLRFELRYRAERSKTFTTWMVKDLQHHCVIHDAWSGLRHVVQLRAQEEFGQGEWSEWSPEAMGTPWTESRSPPAENEVSTPMQALTTNKDDDNILFRDSANATSLPVQDSSSVPLPTFLVAGGSLAFGTLLCIAIVLRFKKTWKLRALKEGKTSMHPPYSLGQLVPERPRPTPVLVPLISPPVSPSSLGSDNTSSHNRPDARDPRSPYDISNTDYFFPR"}, "B6": {"name": "F134: IL-6R F-L mutation at F134 (protein, UniProt P08887 20-468, looked up, variant F134L)", "Interleukin-6 receptor …": "LAPRRCPAQEVARGVLTSLPGDSVTLTCPGVEPEDNATVHWVLRKPAAGSHPSRWAGMGRRLLLRSVQLHDSGNYSCYRAGRPAGTVHLLVDVPPEEPQLSCFRKSPLSNVVCEWGPRSTPSLTTKAVLLVRKLQNSPAEDFQEPCQYSQESQKFSCQLAVPEGDSSFYIVSMCVASSVGSKFSKTQTFQGCGILQPDPPANITVTAVARNPRWLSVTWQDPHSWNSSFYRLRFELRYRAERSKTFTTWMVKDLQHHCVIHDAWSGLRHVVQLRAQEEFGQGEWSEWSPEAMGTPWTESRSPPAENEVSTPMQALTTNKDDDNILFRDSANATSLPVQDSSSVPLPTFLVAGGSLAFGTLLCIAIVLRFKKTWKLRALKEGKTSMHPPYSLGQLVPERPRPTPVLVPLISPPVSPSSLGSDNTSSHNRPDARDPRSPYDISNTDYFFPR"}, "B7": {"name": "E278: IL-6R EF-AI double mutant at E278 and F279 (protein, UniProt P08887 20-468, looked up, variant E278A F279I)", "Interleukin-6 receptor …": "LAPRRCPAQEVARGVLTSLPGDSVTLTCPGVEPEDNATVHWVLRKPAAGSHPSRWAGMGRRLLLRSVQLHDSGNYSCYRAGRPAGTVHLLVDVPPEEPQLSCFRKSPLSNVVCEWGPRSTPSLTTKAVLLVRKFQNSPAEDFQEPCQYSQESQKFSCQLAVPEGDSSFYIVSMCVASSVGSKFSKTQTFQGCGILQPDPPANITVTAVARNPRWLSVTWQDPHSWNSSFYRLRFELRYRAERSKTFTTWMVKDLQHHCVIHDAWSGLRHVVQLRAQEAIGQGEWSEWSPEAMGTPWTESRSPPAENEVSTPMQALTTNKDDDNILFRDSANATSLPVQDSSSVPLPTFLVAGGSLAFGTLLCIAIVLRFKKTWKLRALKEGKTSMHPPYSLGQLVPERPRPTPVLVPLISPPVSPSSLGSDNTSSHNRPDARDPRSPYDISNTDYFFPR"}, "B8": {"name": "R231: IL-6R RL-SI double mutant at R231 and L232 (protein, UniProt P08887 20-468, looked up, variant R231S L232I)", "Interleukin-6 receptor …": "LAPRRCPAQEVARGVLTSLPGDSVTLTCPGVEPEDNATVHWVLRKPAAGSHPSRWAGMGRRLLLRSVQLHDSGNYSCYRAGRPAGTVHLLVDVPPEEPQLSCFRKSPLSNVVCEWGPRSTPSLTTKAVLLVRKFQNSPAEDFQEPCQYSQESQKFSCQLAVPEGDSSFYIVSMCVASSVGSKFSKTQTFQGCGILQPDPPANITVTAVARNPRWLSVTWQDPHSWNSSFYSIRFELRYRAERSKTFTTWMVKDLQHHCVIHDAWSGLRHVVQLRAQEEFGQGEWSEWSPEAMGTPWTESRSPPAENEVSTPMQALTTNKDDDNILFRDSANATSLPVQDSSSVPLPTFLVAGGSLAFGTLLCIAIVLRFKKTWKLRALKEGKTSMHPPYSLGQLVPERPRPTPVLVPLISPPVSPSSLGSDNTSSHNRPDARDPRSPYDISNTDYFFPR"}, "B9": {"name": "I260: IL-6R I-D mutation at I260 (protein, UniProt P08887 20-468, looked up, variant I260D)", "Interleukin-6 receptor …": "LAPRRCPAQEVARGVLTSLPGDSVTLTCPGVEPEDNATVHWVLRKPAAGSHPSRWAGMGRRLLLRSVQLHDSGNYSCYRAGRPAGTVHLLVDVPPEEPQLSCFRKSPLSNVVCEWGPRSTPSLTTKAVLLVRKFQNSPAEDFQEPCQYSQESQKFSCQLAVPEGDSSFYIVSMCVASSVGSKFSKTQTFQGCGILQPDPPANITVTAVARNPRWLSVTWQDPHSWNSSFYRLRFELRYRAERSKTFTTWMVKDLQHHCVDHDAWSGLRHVVQLRAQEEFGQGEWSEWSPEAMGTPWTESRSPPAENEVSTPMQALTTNKDDDNILFRDSANATSLPVQDSSSVPLPTFLVAGGSLAFGTLLCIAIVLRFKKTWKLRALKEGKTSMHPPYSLGQLVPERPRPTPVLVPLISPPVSPSSLGSDNTSSHNRPDARDPRSPYDISNTDYFFPR"}, "B10": {"name": "P162: IL-6R PE-LQ double mutant at P162 and E163, loop L3 (protein, UniProt P08887 20-468, looked up, variant P162L E163Q)", "Interleukin-6 receptor …": "LAPRRCPAQEVARGVLTSLPGDSVTLTCPGVEPEDNATVHWVLRKPAAGSHPSRWAGMGRRLLLRSVQLHDSGNYSCYRAGRPAGTVHLLVDVPPEEPQLSCFRKSPLSNVVCEWGPRSTPSLTTKAVLLVRKFQNSPAEDFQEPCQYSQESQKFSCQLAVLQGDSSFYIVSMCVASSVGSKFSKTQTFQGCGILQPDPPANITVTAVARNPRWLSVTWQDPHSWNSSFYRLRFELRYRAERSKTFTTWMVKDLQHHCVIHDAWSGLRHVVQLRAQEEFGQGEWSEWSPEAMGTPWTESRSPPAENEVSTPMQALTTNKDDDNILFRDSANATSLPVQDSSSVPLPTFLVAGGSLAFGTLLCIAIVLRFKKTWKLRALKEGKTSMHPPYSLGQLVPERPRPTPVLVPLISPPVSPSSLGSDNTSSHNRPDARDPRSPYDISNTDYFFPR"}, "B11": {"name": "D262: IL-6R D-G mutant at D262 (protein, UniProt P08887 20-468, looked up, variant D262G)", "Interleukin-6 receptor …": "LAPRRCPAQEVARGVLTSLPGDSVTLTCPGVEPEDNATVHWVLRKPAAGSHPSRWAGMGRRLLLRSVQLHDSGNYSCYRAGRPAGTVHLLVDVPPEEPQLSCFRKSPLSNVVCEWGPRSTPSLTTKAVLLVRKFQNSPAEDFQEPCQYSQESQKFSCQLAVPEGDSSFYIVSMCVASSVGSKFSKTQTFQGCGILQPDPPANITVTAVARNPRWLSVTWQDPHSWNSSFYRLRFELRYRAERSKTFTTWMVKDLQHHCVIHGAWSGLRHVVQLRAQEEFGQGEWSEWSPEAMGTPWTESRSPPAENEVSTPMQALTTNKDDDNILFRDSANATSLPVQDSSSVPLPTFLVAGGSLAFGTLLCIAIVLRFKKTWKLRALKEGKTSMHPPYSLGQLVPERPRPTPVLVPLISPPVSPSSLGSDNTSSHNRPDARDPRSPYDISNTDYFFPR"}}, "key": {"IL-6": {"tested_on": "IL-6", "settings": "cited from earlier work; for Binding: IL-6 binding of IL-6R mutant, relative to wild type"}, "gp130 signalling": {"tested_on": "gp130 signalling", "settings": "cited from earlier work; for Signalling: gp130 signalling of IL-6R mutant, relative to wild type"}}}
{"molecule": "B1", "values": [{"measurement": "binding of IL-6 to IL-6R (in words)", "setting": "IL-6; mutated to alanine", "result": "slightly increased"}, {"measurement": "signalling (in words)", "setting": "gp130 signalling; mutated to alanine", "result": "slightly increased"}]}
{"molecule": "B2", "values": [{"measurement": "Binding", "setting": "IL-6", "result": 115, "unit": "%"}, {"measurement": "Signalling", "setting": "gp130 signalling", "result": 10, "unit": "%"}]}
{"molecule": "B3", "values": [{"measurement": "Binding", "setting": "IL-6", "result": 40, "unit": "%"}, {"measurement": "Signalling", "setting": "gp130 signalling", "result": 140, "unit": "%"}]}
{"molecule": "B4", "values": [{"measurement": "Signalling", "setting": "gp130 signalling", "result": "mutant signals at 50%"}]}
{"molecule": "B5", "values": [{"measurement": "Binding", "setting": "IL-6", "result": 70, "unit": "%"}, {"measurement": "Signalling", "setting": "gp130 signalling", "result": ">150", "unit": "%"}]}
{"molecule": "B6", "values": [{"measurement": "Binding", "setting": "IL-6", "result": ">100", "unit": "%"}, {"measurement": "Signalling", "setting": "gp130 signalling", "result": 70, "unit": "%"}]}
{"molecule": "B7", "values": [{"measurement": "Binding", "setting": "IL-6", "result": 0, "unit": "%"}]}
{"molecule": "B8", "values": [{"measurement": "Binding", "setting": "IL-6", "result": 0, "unit": "%"}]}
{"molecule": "B9", "values": [{"measurement": "Binding", "setting": "IL-6", "result": 0, "unit": "%"}]}
{"molecule": "B10", "values": [{"measurement": "Binding", "setting": "IL-6", "result": "<10", "unit": "%"}]}
{"molecule": "B11", "values": [{"measurement": "Binding", "setting": "IL-6", "result": 30, "unit": "%"}, {"measurement": "Signalling", "setting": "gp130 signalling", "result": "<10", "unit": "%"}]}
